Results from publication PMC9482650, “Quantitative fragmentomics allow affinity mapping of interactomes” (Nature Communications, 2022).

T1: ARHGEF11, O15085
T1 sequence (O15085 42-136, limits assumed, looked up): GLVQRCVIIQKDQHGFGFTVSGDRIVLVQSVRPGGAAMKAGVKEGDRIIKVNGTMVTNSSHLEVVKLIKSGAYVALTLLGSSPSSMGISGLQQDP

T2: DFNB31_3, Q9P202
T2 sequence (Q9P202 811-907, limits assumed, looked up): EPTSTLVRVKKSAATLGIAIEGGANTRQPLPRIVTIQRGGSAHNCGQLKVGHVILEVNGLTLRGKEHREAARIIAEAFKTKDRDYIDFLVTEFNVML

T3: FRMPD1, Q5SYB0
T3 sequence (Q5SYB0 52-145, limits assumed, looked up): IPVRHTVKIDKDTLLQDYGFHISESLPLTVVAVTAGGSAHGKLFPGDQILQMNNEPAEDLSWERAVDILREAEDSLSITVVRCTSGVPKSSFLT

T4: GRIP1_7, Q9Y3R0
T4 sequence (Q9Y3R0 999-1096, limits assumed, looked up): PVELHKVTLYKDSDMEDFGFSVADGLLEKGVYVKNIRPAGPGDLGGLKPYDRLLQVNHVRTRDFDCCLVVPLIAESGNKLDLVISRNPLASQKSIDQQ

T5: HTRA3, P83110
T5 sequence (P83110 354-453, limits assumed, looked up): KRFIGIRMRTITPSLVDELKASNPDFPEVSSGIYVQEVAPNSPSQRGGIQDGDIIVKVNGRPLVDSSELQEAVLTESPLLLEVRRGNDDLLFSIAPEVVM

T6: LIN7A, O14910
T6 sequence (O14910 103-200, limits assumed, looked up): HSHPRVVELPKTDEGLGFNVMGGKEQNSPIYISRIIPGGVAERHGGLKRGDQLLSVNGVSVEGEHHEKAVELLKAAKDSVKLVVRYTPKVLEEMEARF

T7: MPDZ_5, O75970
T7 sequence (O75970 695-796, limits assumed, looked up): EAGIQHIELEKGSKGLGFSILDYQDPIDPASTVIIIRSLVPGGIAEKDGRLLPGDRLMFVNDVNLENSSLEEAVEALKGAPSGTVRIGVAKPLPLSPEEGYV

T8: MPP2, Q14168
T8 sequence (Q14168 180-250, limits assumed, looked up): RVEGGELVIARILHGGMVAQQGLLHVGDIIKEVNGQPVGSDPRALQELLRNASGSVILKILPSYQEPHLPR

T9: NHERF3_3, Q5T2W1
T9 sequence (Q5T2W1 238-333, limits assumed, looked up): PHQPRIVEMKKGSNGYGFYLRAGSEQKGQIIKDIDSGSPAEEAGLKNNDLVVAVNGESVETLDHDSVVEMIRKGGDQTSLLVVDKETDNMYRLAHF

T10: PCLO, Q9Y6V0
T10 sequence (Q9Y6V0 4491-4600, limits assumed, looked up): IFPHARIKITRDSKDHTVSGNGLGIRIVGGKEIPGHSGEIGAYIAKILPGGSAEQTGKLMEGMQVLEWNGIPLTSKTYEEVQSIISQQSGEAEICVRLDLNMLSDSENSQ

T11: PDZD7_3, Q9H5P4
T11 sequence (Q9H5P4 857-944, limits assumed, looked up): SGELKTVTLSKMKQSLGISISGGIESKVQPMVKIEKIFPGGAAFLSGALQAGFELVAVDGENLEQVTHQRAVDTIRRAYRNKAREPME

T12: TIAM2, Q8IVF5
T12 sequence (Q8IVF5 885-986, limits assumed, looked up): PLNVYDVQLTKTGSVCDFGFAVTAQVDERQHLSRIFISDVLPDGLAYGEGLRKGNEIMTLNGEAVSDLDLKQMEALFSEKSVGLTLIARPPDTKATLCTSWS

T13: TJP3_3, O95049
T13 sequence (O95049 375-456, limits assumed, looked up): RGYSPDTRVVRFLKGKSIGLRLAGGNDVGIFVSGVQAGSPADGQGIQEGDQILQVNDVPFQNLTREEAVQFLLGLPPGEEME

B1: SLC1A5, Q15758 (peptide)
chain: TVASEKESVM

Target: T1, ARHGEF11, O15085
Test: holdup assay
Parameters: key: below the threshold = too weak to quantify, mostly under pKd 3.1 to 4
Details: plain residues with an end cap or a label only (N-terminal biotin on a linker: ttds)

Row | Binder | pKd
1 | B1 | 3.56

Target: T2, DFNB31_3, Q9P202
Test: holdup assay
Parameters: key: below the threshold = too weak to quantify, mostly under pKd 3.1 to 4
Details: plain residues with an end cap or a label only (N-terminal biotin on a linker: ttds)

Row | Binder | pKd
2 | B1 | below the threshold

Target: DLG1_3, Q12959
Sequence (Q12959 457-571): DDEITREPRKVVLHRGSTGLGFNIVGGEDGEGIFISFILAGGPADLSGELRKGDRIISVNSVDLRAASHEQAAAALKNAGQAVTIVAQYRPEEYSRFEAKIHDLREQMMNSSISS
Test: holdup assay
Parameters: key: below the threshold = too weak to quantify, mostly under pKd 3.1 to 4
Details: plain residues with an end cap or a label only (N-terminal biotin on a linker: ttds)

Row | Binder | pKd
3 | B1 | 3.55

Target: DLG2_2, Q15700
Test: holdup assay
Parameters: key: below the threshold = too weak to quantify, mostly under pKd 3.1 to 4
Details: plain residues with an end cap or a label only (N-terminal biotin on a linker: ttds)

Row | Binder | pKd
4 | B1 | below the threshold

Target: DLG2_3, Q15700
Test: holdup assay
Parameters: key: below the threshold = too weak to quantify, mostly under pKd 3.1 to 4
Details: plain residues with an end cap or a label only (N-terminal biotin on a linker: ttds)

Row | Binder | pKd
5 | B1 | below the threshold

Target: T3, FRMPD1, Q5SYB0
Test: holdup assay
Parameters: key: below the threshold = too weak to quantify, mostly under pKd 3.1 to 4
Details: plain residues with an end cap or a label only (N-terminal biotin on a linker: ttds)

Row | Binder | pKd
6 | B1 | below the threshold

Target: GORASP1, Q9BQQ3
Sequence (Q9BQQ3 1-208): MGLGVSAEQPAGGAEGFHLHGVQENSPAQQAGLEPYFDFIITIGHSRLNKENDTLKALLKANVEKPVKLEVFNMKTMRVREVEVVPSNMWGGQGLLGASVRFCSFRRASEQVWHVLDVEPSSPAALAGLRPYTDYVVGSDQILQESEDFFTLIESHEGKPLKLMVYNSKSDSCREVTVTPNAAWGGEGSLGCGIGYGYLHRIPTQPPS
Test: holdup assay
Parameters: key: below the threshold = too weak to quantify, mostly under pKd 3.1 to 4
Details: plain residues with an end cap or a label only (N-terminal biotin on a linker: ttds)

Row | Binder | pKd
7 | B1 | below the threshold

Target: T4, GRIP1_7, Q9Y3R0
Test: holdup assay
Parameters: key: below the threshold = too weak to quantify, mostly under pKd 3.1 to 4
Details: plain residues with an end cap or a label only (N-terminal biotin on a linker: ttds)

Row | Binder | pKd
8 | B1 | 3.67

Target: GRIP2_4, Q9C0E4
Sequence (Q9C0E4 446-548): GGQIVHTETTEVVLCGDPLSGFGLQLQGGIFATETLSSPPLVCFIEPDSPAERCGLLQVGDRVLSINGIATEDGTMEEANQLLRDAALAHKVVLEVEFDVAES
Test: holdup assay
Parameters: key: below the threshold = too weak to quantify, mostly under pKd 3.1 to 4
Details: plain residues with an end cap or a label only (N-terminal biotin on a linker: ttds)

Row | Binder | pKd
9 | B1 | below the threshold

Target: GRIP2_5, Q9C0E4
Sequence (Q9C0E4 544-642): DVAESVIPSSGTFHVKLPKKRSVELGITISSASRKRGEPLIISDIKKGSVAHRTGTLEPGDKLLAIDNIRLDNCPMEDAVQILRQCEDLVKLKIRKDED
Test: holdup assay
Parameters: key: below the threshold = too weak to quantify, mostly under pKd 3.1 to 4
Details: plain residues with an end cap or a label only (N-terminal biotin on a linker: ttds)

Row | Binder | pKd
10 | B1 | below the threshold

Target: T5, HTRA3, P83110
Test: holdup assay
Parameters: key: below the threshold = too weak to quantify, mostly under pKd 3.1 to 4
Details: plain residues with an end cap or a label only (N-terminal biotin on a linker: ttds)

Row | Binder | pKd
11 | B1 | below the threshold

Target: IL16_4, Q14005
Sequence (Q14005 1229-1329): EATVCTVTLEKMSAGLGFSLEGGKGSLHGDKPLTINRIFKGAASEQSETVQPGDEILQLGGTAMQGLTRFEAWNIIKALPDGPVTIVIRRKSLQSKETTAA
Test: holdup assay
Parameters: key: below the threshold = too weak to quantify, mostly under pKd 3.1 to 4
Details: plain residues with an end cap or a label only (N-terminal biotin on a linker: ttds)

Row | Binder | pKd
12 | B1 | below the threshold

Target: LAP2, Q96RT1
Sequence (Q96RT1 other isoform, or with tags, fused parts or gaps): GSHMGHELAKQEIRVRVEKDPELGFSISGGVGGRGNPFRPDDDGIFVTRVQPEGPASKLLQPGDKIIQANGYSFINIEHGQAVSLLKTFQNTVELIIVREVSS
Test: holdup assay
Parameters: key: below the threshold = too weak to quantify, mostly under pKd 3.1 to 4
Details: plain residues with an end cap or a label only (N-terminal biotin on a linker: ttds)

Row | Binder | pKd
13 | B1 | below the threshold

Target: T6, LIN7A, O14910
Test: holdup assay
Parameters: key: below the threshold = too weak to quantify, mostly under pKd 3.1 to 4
Details: plain residues with an end cap or a label only (N-terminal biotin on a linker: ttds)

Row | Binder | pKd
14 | B1 | below the threshold

Target: LNX1_2, Q8TBB1
Sequence (Q8TBB1 371-470): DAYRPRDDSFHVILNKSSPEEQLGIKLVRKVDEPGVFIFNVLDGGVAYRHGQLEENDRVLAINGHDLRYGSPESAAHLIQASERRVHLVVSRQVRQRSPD
Test: holdup assay
Parameters: key: below the threshold = too weak to quantify, mostly under pKd 3.1 to 4
Details: plain residues with an end cap or a label only (N-terminal biotin on a linker: ttds)

Row | Binder | pKd
15 | B1 | below the threshold

Target: MAST1, Q9Y2H9
Sequence (Q9Y2H9 962-1065): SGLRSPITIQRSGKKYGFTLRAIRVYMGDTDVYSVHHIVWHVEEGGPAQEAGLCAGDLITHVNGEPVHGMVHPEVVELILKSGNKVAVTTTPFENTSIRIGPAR
Test: holdup assay
Parameters: key: below the threshold = too weak to quantify, mostly under pKd 3.1 to 4
Details: plain residues with an end cap or a label only (N-terminal biotin on a linker: ttds)

Row | Binder | pKd
16 | B1 | 4.2

Target: T7, MPDZ_5, O75970
Test: holdup assay
Parameters: key: below the threshold = too weak to quantify, mostly under pKd 3.1 to 4
Details: plain residues with an end cap or a label only (N-terminal biotin on a linker: ttds)

Row | Binder | pKd
17 | B1 | below the threshold

Target: T8, MPP2, Q14168
Test: holdup assay
Parameters: key: below the threshold = too weak to quantify, mostly under pKd 3.1 to 4
Details: plain residues with an end cap or a label only (N-terminal biotin on a linker: ttds)

Row | Binder | pKd
18 | B1 | below the threshold

Target: NHERF2_2, Q15599
Sequence (Q15599 142-238): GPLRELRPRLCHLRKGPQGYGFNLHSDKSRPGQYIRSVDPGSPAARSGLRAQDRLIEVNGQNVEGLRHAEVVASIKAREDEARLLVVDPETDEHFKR
Test: holdup assay
Parameters: key: below the threshold = too weak to quantify, mostly under pKd 3.1 to 4
Details: plain residues with an end cap or a label only (N-terminal biotin on a linker: ttds)

Row | Binder | pKd
19 | B1 | 3.51

Target: T9, NHERF3_3, Q5T2W1
Test: holdup assay
Parameters: key: below the threshold = too weak to quantify, mostly under pKd 3.1 to 4
Details: plain residues with an end cap or a label only (N-terminal biotin on a linker: ttds)

Row | Binder | pKd
20 | B1 | below the threshold

Target: T10, PCLO, Q9Y6V0
Test: holdup assay
Parameters: key: below the threshold = too weak to quantify, mostly under pKd 3.1 to 4
Details: plain residues with an end cap or a label only (N-terminal biotin on a linker: ttds)

Row | Binder | pKd
21 | B1 | below the threshold

Target: T11, PDZD7_3, Q9H5P4
Test: holdup assay
Parameters: key: below the threshold = too weak to quantify, mostly under pKd 3.1 to 4
Details: plain residues with an end cap or a label only (N-terminal biotin on a linker: ttds)

Row | Binder | pKd
22 | B1 | 3.71

Target: SCRIB_1, Q14160
Sequence (Q14160 718-814): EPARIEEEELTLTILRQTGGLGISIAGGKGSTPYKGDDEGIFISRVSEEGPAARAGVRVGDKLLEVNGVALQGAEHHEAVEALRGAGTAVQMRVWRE
Test: holdup assay
Parameters: key: below the threshold = too weak to quantify, mostly under pKd 3.1 to 4
Details: plain residues with an end cap or a label only (N-terminal biotin on a linker: ttds)

Row | Binder | pKd
23 | B1 | 5.2

Target: T12, TIAM2, Q8IVF5
Test: holdup assay
Parameters: key: below the threshold = too weak to quantify, mostly under pKd 3.1 to 4
Details: plain residues with an end cap or a label only (N-terminal biotin on a linker: ttds)

Row | Binder | pKd
24 | B1 | below the threshold

Target: T13, TJP3_3, O95049
Test: holdup assay
Parameters: key: below the threshold = too weak to quantify, mostly under pKd 3.1 to 4
Details: plain residues with an end cap or a label only (N-terminal biotin on a linker: ttds)

Row | Binder | pKd
25 | B1 | below the threshold
